According to US11046988B2, “Process for the modification of a glycoprotein using a β-(1,4)-N-acetylgalactosaminyl transferase or a mutant thereof” (Synaffix B.V., priority 2014, dated 2021):

System: trimmed trastuzumab (core GlcNAc(Fuc) / core GlcNAc, glycan of formula (1))
Assay: Glycosyltransfer of sugar derivative to trimmed (Endo S deglycosylated) trastuzumab, MS analysis
Type: biochemical
Conditions: for cumulative conversions of the major and minor product, F2-GalNAz transfer: UDP-F2-GalNAz (18) 1 mM, enzyme 0.25 mg/mL; for cumulative conversions of the major and minor product, F2-GalNBzN3 transfer: UDP-F2-GalNBzN3 (24) 1 mM, enzyme 0.5 mg/mL; for major heavy chain product, F2-GalNAz transfer to core GlcNAc(Fuc)-substituted trastuzumab: UDP-F2-GalNAz 0.4 mM, GalNAcT 1 mg/mL, 10 mM MnCl2, pH 8.0, 16 hours, 30° C.
Experimental: Trimming of IgG glycans was performed using Endo S from Streptococcus pyogenes (commercially available from Genovis, Lund, Sweden). The IgG (10 mg/mL) was incubated with Endo S (40 U/mL) in 25 mM Tris pH 8.0 for approximately 16 hours at 37° C. The deglycosylated IgG was concentrated and washed with 10 mM MnCl2 and 25 mM Tris-HCl pH 8.0 using an Amicon Ultra-0.5, Ultracel-10 Membrane (Millipore).
Trastuzumab was subjected to the trimming protocol above. Analysis of the trimmed antibody was performed on a JEOL AccuToF equipped with an Agilent 1100 HPLC. Samples (2 μL) were reduced with DTT (2 μL) during 10 min and subsequently diluted with H2O (40 μL) prior to injection. […] The two peaks of heavy chain belonged to one major product (49496 Da, 90% of total heavy chain), resulting from core GlcNAc(Fuc) substituted trastuzumab, and a minor product (49351 Da, ±10% of total heavy chain), resulting from core GlcNac substituted trastuzumab. This is an example of a glycoprotein comprising a glycan according to formula (1).
A solution of 50 μg (modified) IgG, 1 M Tris-HCl pH 8.0, 1 mM EDTA and 30 mM DTT with a total volume of approximately 70 μL was incubated for 20 minutes at 37° C. to reduce the disulfide bridges allowing to analyze both light and heavy chain. If present, azide-functionalities are reduced to amines under these conditions. Reduced samples were washed trice with milliQ using an Amicon Ultra-0.5, Ultracel-10 Membrane (Millipore) and concentrated to 10 μM (modified) IgG. The reduced IgG was analyzed by electrospray ionization time-of-flight (ESI-TOF) on a JEOL AccuTOF. Deconvoluted spectra were obtained using Magtran software.
Enzymatic introduction of galactose derivative (e.g. azido-containing sugar) onto IgG was effected with a GalNAc-transferase or a mutant thereof. The deglycosylated IgG (prepared as described above, 10 mg/mL) was incubated with a modified UDP-galactose derivative (e.g. an azido-modified sugar-UDP derivative) (0.4 mM) and GalNAcT (1 mg/mL) in 10 mM MnCl2 and 25 mM Tris-HCl pH 8.0 for 16 hours at 30° C. The functionalized IgG (e.g. azido-functionalized IgG) was incubated with protein A agarose (40 μL per mg IgG) for 2 hours at 4° C. The protein A agarose was washed three times with PBS and the IgG was eluted with 100 mM glycine-HCl pH 2.7. The eluted IgG was neutralized with 1 M Tris-HCl pH 8.0 and concentrated and washed with PBS using an Amicon Ultra-0.5, Ultracel-10 Membrane (Millipore) to a concentration of 15-20 mg/mL.
Enzymatic introduction of galactose derivative (e.g. thio-containing sugar 21) onto IgG was effected with a GalNAc-transferase or a mutant thereof. The deglycosylated IgG (prepared as described above, 10 mg/mL) was incubated with a modified UDP-galactose derivative (e.g. an thio-modified sugar-UDP derivative) (2 mM) and GalNAcT (0.2 mg/mL) in 10 mM MnCl2 and 50 mM Tris-HCl pH 6.0 for 16 hours at 30° C. The functionalized IgG (e.g. thio-functionalized trastuzumab) was incubated with protein A agarose (40 μL per mg IgG) for 1 hours at rt. The protein A agarose was washed three times with TBS (pH 6.0) and the IgG was eluted with 100 mM glycine-HCl pH 2.5. The eluted IgG was neutralized with 1 M Tris-HCl pH 7.0 and concentrated and washed with 50 mM Tris-HCl pH 6.0 using an Amicon Ultra-0.5, Ultracel-10 Membrane (Millipore) to a concentration of 15-20 mg/mL.

B1: TnGalNAcT(wt): wild-type TnGalNAcT compared with the mutants; probably His6-TnGalNAcT(33-421), SEQ ID NO: 49, from E. coli (protein)
chain: MGSSHHHHHHSSGLVPRGSHMSPLRTYLYTPLYNATQPTLRNVERLAANWPKKIPSNYIEDSEEYSIKNISLSNHTTRASVVHPPSSITETASKLDKNMTIQDGAFAMISPTPLLITKLMDSIKSYVTTEDGVKKAEAVVTLPLCDSMPPDLGPITLNKTELELEWVEKKFPEVEWGGRYSPPNCTARHRVAIIVPYRDRQQHLAIFLNHMHPFLMKQQIEYGIFIVEQEGNKDFNRAKLMNVGFVESQKLVAEGWQCFVFHDIDLLPLDTRNLYSCPRQPRHMSASIDKLHFKLPYEDIFGGVSAMTLEQFTRVNGFSNKYWGWGGEDDDMSYRLKKINYHIARYKMSIARYAMLDHKKSTPNPKRYQLLSQTSKTFQKDGLSTLEYELVQVVQYHLYTHILVNIDERS
modifications: His6-TnGalNAcT(33-421)
cumulative conversions of the major and minor product, F2-GalNAz transfer (overnight): 95%
cumulative conversions of the major and minor product, F2-GalNBzN3 transfer (overnight): 14%

B2: TnGalNAcT(L302A): T. ni GalNAcT mutant, leucine 302 to alanine, SEQ ID NO: 43 (protein)
chain: MGSSHHHHHHSSGLVPRGSHMSPLRTYLYTPLYNATQPTLRNVERLAANWPKKIPSNYIEDSEEYSIKNISLSNHTTRASVVHPPSSITETASKLDKNMTIQDGAFAMISPTPLLITKLMDSIKSYVTTEDGVKKAEAVVTLPLCDSMPPDLGPITLNKTELELEWVEKKFPEVEWGGRYSPPNCTARHRVAIIVPYRDRQQHLAIFLNHMHPFLMKQQIEYGIFIVEQEGNKDFNRAKLMNVGFVESQKLVAEGWQCFVFHDIDLLPLDTRNLYSCPRQPRHMSASIDKAHFKLPYEDIFGGVSAMTLEQFTRVNGFSNKYWGWGGEDDDMSYRLKKINYHIARYKMSIARYAMLDHKKSTPNPKRYQLLSQTSKTFQKDGLSTLEYELVQVVQYHLYTHILVNIDERS
modifications: His6-TnGalNAcT(33-421; L302A)
cumulative conversions of the major and minor product, F2-GalNAz transfer (overnight): 95%
cumulative conversions of the major and minor product, F2-GalNBzN3 transfer (overnight): 37%

B3: TnGalNAcT(W336V): T. ni GalNAcT mutant, tryptophan 336 to valine, SEQ ID NO: 52 (protein)
chain: MGSSHHHHHHSSGLVPRGSHMSPLRTYLYTPLYNATQPTLRNVERLAANWPKKIPSNYIEDSEEYSIKNISLSNHTTRASVVHPPSSITETASKLDKNMTIQDGAFAMISPTPLLITKLMDSIKSYVTTEDGVKKAEAVVTLPLCDSMPPDLGPITLNKTELELEWVEKKFPEVEWGGRYSPPNCTARHRVAIIVPYRDRQQHLAIFLNHMHPFLMKQQIEYGIFIVEQEGNKDFNRAKLMNVGFVESQKLVAEGWQCFVFHDIDLLPLDTRNLYSCPRQPRHMSASIDKLHFKLPYEDIFGGVSAMTLEQFTRVNGFSNKYWGVGGEDDDMSYRLKKINYHIARYKMSIARYAMLDHKKSTPNPKRYQLLSQTSKTFQKDGLSTLEYELVQVVQYHLYTHILVNIDERS
modifications: His6-TnGalNAcT(33-421; W336V)
cumulative conversions of the major and minor product, F2-GalNAz transfer (overnight): 27%

B4: TnGalNAcT(W336F): T. ni GalNAcT mutant, tryptophan 336 to phenylalanine, SEQ ID NO: 50 (protein)
chain: MGSSHHHHHHSSGLVPRGSHMSPLRTYLYTPLYNATQPTLRNVERLAANWPKKIPSNYIEDSEEYSIKNISLSNHTTRASVVHPPSSITETASKLDKNMTIQDGAFAMISPTPLLITKLMDSIKSYVTTEDGVKKAEAVVTLPLCDSMPPDLGPITLNKTELELEWVEKKFPEVEWGGRYSPPNCTARHRVAIIVPYRDRQQHLAIFLNHMHPFLMKQQIEYGIFIVEQEGNKDFNRAKLMNVGFVESQKLVAEGWQCFVFHDIDLLPLDTRNLYSCPRQPRHMSASIDKLHFKLPYEDIFGGVSAMTLEQFTRVNGFSNKYWGFGGEDDDMSYRLKKINYHIARYKMSIARYAMLDHKKSTPNPKRYQLLSQTSKTFQKDGLSTLEYELVQVVQYHLYTHILVNIDERS
modifications: His6-TnGalNAcT(33-421; W336F)
cumulative conversions of the major and minor product, F2-GalNAz transfer (overnight): 24%

B5: TnGalNAcT(E339A): T. ni GalNAcT mutant, glutamic acid 339 to alanine, SEQ ID NO: 53 (protein)
chain: MGSSHHHHHHSSGLVPRGSHMSPLRTYLYTPLYNATQPTLRNVERLAANWPKKIPSNYIEDSEEYSIKNISLSNHTTRASVVHPPSSITETASKLDKNMTIQDGAFAMISPTPLLITKLMDSIKSYVTTEDGVKKAEAVVTLPLCDSMPPDLGPITLNKTELELEWVEKKFPEVEWGGRYSPPNCTARHRVAIIVPYRDRQQHLAIFLNHMHPFLMKQQIEYGIFIVEQEGNKDFNRAKLMNVGFVESQKLVAEGWQCFVFHDIDLLPLDTRNLYSCPRQPRHMSASIDKLHFKLPYEDIFGGVSAMTLEQFTRVNGFSNKYWGWGGADDDMSYRLKKINYHIARYKMSIARYAMLDHKKSTPNPKRYQLLSQTSKTFQKDGLSTLEYELVQVVQYHLYTHILVNIDERS
modifications: His6-TnGalNAcT(33-421; E339A)
cumulative conversions of the major and minor product, F2-GalNAz transfer (overnight): 5%

B6: DmGalNAcT: truncated Drosophila melanogaster β-(1,4)-GalNAcT, amino acids 47-403 of SEQ ID NO: 5 (SEQ ID NO: 9) (protein)
chain: HKYAHIYGNASSDGAGGSEASRLPASPLALSKDRERDQELNGGPNSTIRTVIATANFTSIPQDLTRFLLGTKKFLPPRQKSTSALLANCTDPDPRDGGPITPNTTLESLDVIEAELGPLLRPGGAFEPENCNAQHHVAIVVPFRDRYAHLLLFLRNIHPFLMKQRIAYRIFIVEQTNGKPFNRAAMMNIGYLEALKLYQWDCFIFHDVDLLPLDDRNLYNCPRQPRHMSVAIDTLNFRLPYRSIFGGVSAMTREHFQAVNGFSNSFFGWGGEDDDMSNRLKHANLFISRYPVNIARYKMLKHQKEKANPKRYENLQNGMSKIEQDGINSIKYSIYSIKQFPTFTWYLAELKNSERKS
modifications: DmGalNAcT (47-403)
major heavy chain product, F2-GalNAz transfer to core GlcNAc(Fuc)-substituted trastuzumab: approximately 90 % of total heavy chain

B7: AsGalNAcT: truncated Ascaris suum β-(1,4)-GalNAcT, amino acids 30-383 of SEQ ID NO: 3 (SEQ ID NO: 7) (protein)
chain: DYSFWSPAFIISAPKTLTTLQPFSQSTSTNDLAVSALESVEFSMLDNSSILHASDNWTNDELVMRAQNENLQLCPMTPPALVGPIKVWMDAPSFAELERLYPFLEPGGHGMPTACRARHRVAIVVPYRDRESHLRTFLHNLHSLLTKQQLDYAIFVVEQTANETFNRAKLMNVGYAEAIRLYDWRCFIFHDVDLLPEDDRNLYSCPDEPRHMSVAVDKFNYKLPYGSIFGGISALTREQFEGINGFSNDYWGWGGEDDDLSTRVTLAGYKISRYPAEIARYKMIKHNSEKKNPVNRCRYKLMSATKSRWRNDGLSSLSYDLISLGRLPLYTHIKVDLLEKQSRRYLRTHGFPTC
modifications: AsGalNAcT (30-383)
major heavy chain product, F2-GalNAz transfer to core GlcNAc(Fuc)-substituted trastuzumab: approximately 90 % of total heavy chain
major product, GalNButN3 transfer to core GlcNAc(Fuc) substituted trastuzumab (UDP-GalNButN3 0.7 mM, AsGalNAcT(wt) 0.2 mg/mL, overnight): 50 % of total heavy chain
major product, GalNProSH transfer to core GlcNAc(Fuc) substituted trastuzumab (UDP-GalNProSH 2 mM, AsGalNAcT 0.2 mg/mL, overnight): 95 % of total heavy chain
major product, GalNPropN3 transfer to core GlcNAc(Fuc) substituted trastuzumab (UDP-GalNPropN3 0.7 mM, AsGalNAcT 0.2 mg/mL, overnight): 70 % of total heavy chain
